The values that follow come from patent US7098302B2, “Binding peptides specific for the extracellular domain of ErbB2 and uses therefor” (University of Vermont and State Agricultural College, priority 2001, dated 2006).

The target of assay [1] is T1, ErbB2 (pY1248, pY877) in SKBR3 cells (Homo sapiens, UniProt P04626).
T1 construct: ErbB2 overexpressing SKBR3 cells were treated with the EC-1 free peptide; endogenous in cells; host or cells: SKBR3
In words: ErbB2 phosphorylation, Western blot with phospho-specific ErbB2 antibodies and densitometry. Format: cell-based. As to the method:
FIG. 6A is a Western blot analysis of SKBR3 cell lysates made at various times following 15 minute treatment with 25 μM EC-1 peptide. Blots were probed with pY1248 phospho ErbB2 antibody, pY877 phospho ErbB2 antibody and total ErbB2 antibody.
ErbB2 overexpressing SKBR3 cells were treated with the EC-1 free peptide to determine its effect on ErbB2 activation. When ErbB2 is activated it becomes phosphorylated on specific tyrosine residues (i.e., pY1248 and pY877). This is turn triggers downstream signal transduction events, culminating in increased cellular proliferation. Viable SKBR3 cells were treated with 25 μM EC-1 peptide for 15 minutes. At 0.5, 2, 4, 8, 22 and 48 hours thereafter, cell lysates were prepared and run on a Western blot using phospho-specific ErbB2 antibodies. […] (See FIG. 6B.) The peptide had no effect on total ErbB2 expression.
(In general: In western blotting, separated proteins are transferred to a membrane and probed.)

Assay [2] has as its target T2, native, intact ErbB2 extracted from the membranes of human breast cancer cells (Homo sapiens, UniProt P04626).
T2 construct: native, intact ErbB2 extracted from the membranes of human breast cancer cells; endogenous in cells; host or cells: BT474 and SKBR3 breast cancer cells (MCF7 as low-expression control)
Put plainly: ELISA of peptide phage on solubilized membrane lysates captured with anti-ErbB2 antibody. Format: binding. How it is done: The above identified peptide phage specifically bind to native, intact ErbB2 extracted from the membranes of human breast cancer cells that overexpress ErbB2. Plates were coated with 1 μg of an antibody that binds to the intracellular domain of ErbB2, followed by 100 μl of solubilized membrane preparations from two different breast cancer cell lines that overexpress ErbB2 (BT474 and SKBR3), and probed with CB1 peptide-phage, control library phage, and 9G6 anti-ErbB2. MCF7 cells serve as a (relative) negative target control, as MCF7 breast cancer cells express only a low level of ErbB2.
Peptide phage derived from the EC-1 biases library similarly bind specifically to membrane lysates from ErbB2 expressing SKBR3 cells but not to lysates from minimally expressing MCF7 cells. (See FIG. 2B.)
Background: In an ELISA, binding on a coated surface is turned into a signal by an enzyme label.

Regarding “WTGW C LNPEESTWGF C TGSF (WTGWCLNPEESTWGFCTGSF) [EC-1]”, in assay [1] (25 μM EC-1), the “time for which phosphorylation of ErbB2 is inhibited after treatment” value is on record as “at least 8 hours”. For the same substance, the “effect on total ErbB2 expression” value in assay [1] (25 μM EC-1 peptide) is reported as “no effect”. The “inhibition of the phosphorylation of residues pY1248 and pY877 of ErbB2” value in assay [1] (25 μM EC-1 peptide for 15 minutes, after 0.5 hrs) is reported as 40%. Besides, in assay [2] (BT474 and/or SKBR3 lysates), the “binding to membrane lysates from ErbB2 overexpressing cells by ELISA” value is “binding to SKBR3”. Further, the “binding to membrane lysates from MCF7 cells by ELISA” value in assay [2] (MCF7 cells express only a low level of ErbB2) is “not to MCF7”.
